Source: patent publication US20260275288A1 (University of Texas, published 2026)

Experiments:
[1] = target: T1, TCR/FcR #2 CD16 extracellular domain (Fc binding domain) comprising polypeptide: WT high affinity CD16 … (human, UniProt P08637 17-254); experiment: flow cytometry; 1 h, 37 °C, complete media, washed (FIGS. 38C-38D)
T1 construct: these cells also carry endogenous CD16; also called TCR/FcR #2 transduced NK cells; uTNK15 and TCR/FcR #2 transduced NK cells

[2] = target: T2, non-transduced (NT) cord blood derived NK cells (endogenous wild type CD16; no CD3/TCR) (human, UniProt P08637 17-254); experiment: as above
T2 construct: whole, on cells; A control cell, not a single protein; for the CD3 engagers the cells are the control without CD3; also called NT NK cells; NT NK
T2 sequence (P08637 17-254): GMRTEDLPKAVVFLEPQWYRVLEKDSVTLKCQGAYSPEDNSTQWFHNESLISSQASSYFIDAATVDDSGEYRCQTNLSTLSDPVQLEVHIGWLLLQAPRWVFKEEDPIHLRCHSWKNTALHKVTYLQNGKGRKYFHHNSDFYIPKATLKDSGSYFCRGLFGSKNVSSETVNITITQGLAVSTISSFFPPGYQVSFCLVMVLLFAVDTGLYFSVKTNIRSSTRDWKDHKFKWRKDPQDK

T1 sequence (P08637 17-254 F176V limits assumed, form in doubt): as the sequence (P08637 17-254) above, with F160V counted along it

binding percentage (average across 3 trials) [1]: > 80% | binding percentage (average across 3 trials) [2]: ~70%
B1: Tafasitamab (antibody)
chain 1: EVQLVESGGGLVKPGGSLKLSCAASGYTFTSYVMHWVRQAPGKGLEWIGYINPYNDGTKYNEKFQGRVTISSDKSISTAYMELSSLRSEDTAMYYCARGTYYYGTRVFDYWGQGTLVTVSSASTKGPSVFPLAPSSKSTSGGTAALGCLVKDYFPEPVTVSWNSGALTSGVHTFPAVLQSSGLYSLSSVVTVPSSSLGTQTYICNVNHKPSNTKVDKKVEPKSCDKTHTCPPCPAPELLGGPDVFLFPPKPKDTLMISRTPEVTCVVVDVSHEDPEVQFNWYVDGVEVHNAKTKPREEQFNSTFRVVSVLTVVHQDWLNGKEYKCKVSNKALPAPEEKTISKTKGQPREPQVYTLPPSREEMTKNQVSLTCLVKGFYPSDIAVEWESNGQPENNYKTTPPMLDSDGSFFLYSKLTVDKSRWQQGNVFSCSVMHEALHNHYTQKSLSLSPGK
chain 2: DIVMTQSPATLSLSPGERATLSCRSSKSLQNVNGNTYLYWFQQKPGQSPQLLIYRMSNLNSGVPDRFSGSGSGTEFTLTISSLEPEDFAVYYCMQHLEYPITFGAGTKLEIKRTVAAPSVFIFPPSDEQLKSGTASVVCLLNNFYPREAKVQWKVDNALQSGNSQESVTEQDSKDSTYSLSSTLTLSKADYEKHKVYACEVTHQGLSSPVTKSFNRGEC
